According to patent US11672846B2, “Soluble bacterial and fungal proteins and methods and uses thereof in inhibiting and dispersing biofilm” (priority 2014, dated 2023):
Entries after “also recorded” stand apart in the source; their conditions may differ. Like-named read-outs stand apart in the source and are kept apart here.

What was measured:
S. carnosus = experiment: Inhibition of PNAG-dependent S. carnosus biofilm formation; conditions: 5 μM, preliminary testing
Description: In brief, PNAG-overproducing E. coli or S. carnosus was grown at 37° C. overnight in LB broth supplement with 200 μg/mL ampicillin and 100 μg/mL kanamycin, and 10 μg/mL tetracycline, respectively, with shaking at 200 rpm. Fresh cultures with antibiotic were prepared from the overnight culture using a 1:100 dilution, using LB broth for E. coli, and tryptic soy broth for S. carnosus. 95 μL of diluted culture was added to a sterile 96-well polystyrene round bottom microtiter plate and varying concentrations of protein (2 nM-5 μM) were added in 5 μL aliquots to give a final volume of 100 μL. The cultures were incubated statically for 24 h at 26° C. for E. coli, and 37° C. for S. carnosus, to allow for biofilm formation. To eliminate edge-effects, ˜200 μL of sterile water was placed in all outside wells and the plate was sealed with parafilm. After incubation non-adherent cells and media were removed by washing the plate with deionized water three times. The wells were stained with 150 μL of 0.1% (w/v) crystal violet for 10 min, and washed with water three times. The remaining dye was solubilized with 100 μL of 33% (v/v) acetic acid for 10 min with rotation, after which time the absorbance was measured at 595 nm using a SpectraMax M2 from Molecular Devices (Sunnyvale, Calif.). […] All reactions were completed in at least triplicates and buffer G was used as an untreated control. […]

[1] = Reducing sugar assay on dPNAG; format: biochemical, S. aureus
Description: Isolated dPNAG from S. aureus strain MN8m was solubilized in 6 N HCl at ˜10 mg/mL. 10 N NaOH was used to titrate the re-suspension until neutrality was reached, ˜pH 7-8. In a 50 μL reaction, 1 μM BpsB318-670 was incubated with 1-5 mg/mL of dPNAG in 100 mM HEPES pH 7.0 for 18 hours. The sample was split into two 20 μL aliquots and treated with DTT/3-Methyl-2-benzothiazolinone hydrazone hydrochloride hydrate and heated at 80° C. for 15 minutes. A solution of 0.5% (w/w) iron (III) ammonium sulfate dodecahydrate, 0.5% (w/w) sulfamic acid, and 0.25 N hydrochloric acid was added, mixed, and cooled to room temperature. […] Protein and dPNAG in buffer H were used as background controls.

[2] = tested on: PNAG-overproducing E. coli; experiment: Inhibition of PNAG-dependent E. coli biofilm formation (crystal violet); conditions: read-out: EC50 of E. coli biofilm formation prevention, static 24 h at 26° C.
Description: In brief, PNAG-overproducing E. coli or S. carnosus was grown at 37° C. overnight in LB broth supplement with 200 μg/mL ampicillin and 100 μg/mL kanamycin, and 10 μg/mL tetracycline, respectively, with shaking at 200 rpm. Fresh cultures with antibiotic were prepared from the overnight culture using a 1:100 dilution, using LB broth for E. coli, and tryptic soy broth for S. carnosus. 95 μL of diluted culture was added to a sterile 96-well polystyrene round bottom microtiter plate and varying concentrations of protein (2 nM-5 μM) were added in 5 μL aliquots to give a final volume of 100 μL. The cultures were incubated statically for 24 h at 26° C. for E. coli, and 37° C. for S. carnosus, to allow for biofilm formation. To eliminate edge-effects, ˜200 μL of sterile water was placed in all outside wells and the plate was sealed with parafilm. After incubation non-adherent cells and media were removed by washing the plate with deionized water three times. The wells were stained with 150 μL of 0.1% (w/v) crystal violet for 10 min, and washed with water three times. The remaining dye was solubilized with 100 μL of 33% (v/v) acetic acid for 10 min with rotation, after which time the absorbance was measured at 595 nm using a SpectraMax M2 from Molecular Devices (Sunnyvale, Calif.). […] All reactions were completed in at least triplicates and buffer G was used as an untreated control. Either an E. coli pgaABCD knockout strain (DPGA) or S. carnosus treated with gentamycin, was used as a control for background straining.

[3] = tested on: PNAG-overproducing E. coli biofilms; experiment: Dispersal of pre-formed PNAG-dependent E. coli biofilms; conditions: read-out: EC50 of degradation of pre-formed E. coli biofilm; 60 min, average starting OD595 of 0.5
Description: Bacterial cultures expressing Psl were inoculated as stated above and were grown at 37° C. overnight with shaking at 200 rpm. All cultures were diluted in 1:100 in LB and arabinose was added to a final concentration of 0.5% (w/v) to induce Psl biosynthesis. Media containing the Psl-producing cultures were supplemented with 200 μg/mL ampicillin and 100 μg/mL kanamycin. The cultures were incubated statically for 24 h at 26° C. to allow for biofilm formation. After incubation non-adherent cells and media were removed by washing the plate with deionized water three times. The wells were filled with 95 μL of 100 mM sodium HEPES buffer pH 7.0 followed by 5 μL of varying concentrations of each hydrolytic enzyme (2 nM-5 μM). Reactions were allowed to proceed for up to 60 min at 25° C. on a rotating nutator at which time, the reaction was quenched by washing the plates with deionized water. The wells were stained with 200 μL of 0.1% (w/v) crystal violet for 10 min, and washed with water three times. Crystal violet dye from Psi cultures was solubilized in 100 μL of 95% ethanol for 10 min with rotation, after which time the absorbance was measured at 595 nm using a SpectraMax M2 from Molecular Devices (Sunnyvale, Calif.). The amount of biofilm is proportional to the absorbance from staining with crystal violet (Merritt et al 2005). All reactions were completed in at least triplicate and 100 mM sodium HEPES buffer pH 7.0 was used as an untreated control. The addition of 2.5 mg/mL kanamycin to culture prior to biofilm formation was used as a positive control as no cell growth occurs.
PNAG-overproducing E. coli was grown at 37° C. overnight in LB broth supplement with 200 ug/mL ampicillin and 100 ug/mL kanamycin with shaking at 200 rpm. An E. coli μgaABCD knockout strain was used as a non-biofilm forming control for background straining.

A. fumigatus GAG biofilm = experiment: Inhibition of GAG-dependent A. fumigatus biofilm formation (crystal violet); format: cell-based
[4] = tested on: pre-formed A. fumigatus GAG biofilms; format: cell-based; conditions: crystal violet
[5] = tested on: Pel biofilms of P. aeruginosa PAO1 ΔwspFΔpslpBADpel; experiment: Dispersal of pre-formed Pel biofilms (crystal violet)
Description: The methodology to generate pre-formed Pel biofilms is identical to that of Psl biofilms, described in Example 4 with the exception that the strain used is P. aeruginosa PAO1 ΔwspFΔpslpBADpel.

[6] = tested on: P. aeruginosa PAO1 ΔwspFΔpslpBADpel; experiment: Inhibition of Pel biofilm formation in static culture (crystal violet); conditions: read-out: EC50 of Pel biofilm inhibition; static PAO1ΔwspFΔpslPBADpel culture
[7] = tested on: A549 pulmonary epithelial cell line injured by A. fumigatus; experiment: Chromium release epithelial cell damage assay; conditions: recombinant Sph3 hydrolases, up to 24 h
Description: The immortalized airway epithelial cell line A549 was loaded with chromium-51 by incubating monolayers grown in 24-well tissue culture plates with 3 mCi of ^51Cr at 37° C. in 5% CO2 for 24 h. Excess chromium was removed by washing with Hank's Balanced Salt Solution (HBSS). […] For testing germ tubes, conidia were grown for 7 h in SAB media at 37° C., then the fungus was collected and resuspended in DF12K media before 0.5 μM of hydrolase was added. The germ tubes were incubated with hydrolase for 1 h before being added to the A549 cells. After 16, 20 and 24 h of co-incubation, an aliquot of the medium above the cells was retrieved and replaced with fresh media. The cells were then lysed with 6 N NaOH and the lysate collected. The ^51Cr content of the medium and lysates was then measured in a gamma counter and the extent of epithelial cell damage was calculated as a function of the degree of ^51Cr release. Each strain was tested in triplicate, and all results were corrected for spontaneous chromium release by uninfected epithelial cells.
The methodology for prevention of epithelial cell damage caused by A. fumigatus using Sph352-298 is identical to that previously described in Example 19 for the use PelA47-303.

[8] = tested on: Botrytis cinerea isolate 7b1; experiment: Lectin staining of Botrytis cinerea hyphae after hydrolase treatment; format: cell-based; conditions: 1 μM
Description: Botrytis cinerea isolate 7b1 was inoculated at a concentration of 6×10^3 conidia/ml in 500 μl of Brian media on poly-D-lysine-coated coverslips (Corning, Bedford, Mass.) for 17 h at room temperature, in the dark. Samples were incubated either in the presence or absence of 1 μM Sph3AC(54-304). Media was then removed and the hyphae were incubated in PBS with or without 1 μM Sph3AC(54-304) for 1 h at room temperature. Samples were washed twice with PBS, and stained with 30 μg/mL of Wisteria fluoribunda (WFL) lectin conjugated to fluoresceine for 2 h at 4° C. Samples were washed twice with PBS, and fixed with 4% paraformaldehyde for 10 min at 4° C. Samples were washed once and stained with a 1:1000 dilution of DRAQ5™ (eBioscience, San Diego, Calif.) for 5 min at room temperature. Samples were washed once with PBS, mounted onto microscope slides using SlowFade® Gold antifade reagent (life Technologies™, Eugene, Oreg.), and sealed with nail polish. Images were acquired on an Olympus Fluoview confocal laser microscope using 488 and 633 nm lasers coupled with BA505-525 and BA650IF filters, respectively. Z-stacks of 0.2 μm increments were acquired, and 3D-rendered using ImageJ software (National Institutes of Health).

Trichosporon asahii = experiment: SBA-FITC lectin staining of Trichosporon asahii after hydrolase treatment; format: cell-based; conditions: 0.5 μM, 3 h
Description: To assess the effects of hydrolase treatment on Trichosporon asahii, 1×10^5 T. asahii yeast cells or A. fumigatus conidia were inoculated in Dulbecco's Modified Eagle Medium (DMEM), and grown for 10 h at 37° C., 5% CO2 on glass coverslips. Wells were gently washed once with Ham's F-12K (Kaighn's) Medium (F12K) media, and Sph3AC(54-304) was added at a final concentration of 0.5 μM in F12K, and incubated for an additional 3 h at 37° C., 5% CO2. Young hyphae were washed twice with PBS, and stained with FITC tagged SBA for 1 h. The stained samples were washed with PBS and fixed with 4% PFA for 15 min. Slides were then mounted, sealed, and imaged under confocal microscopy with a 488 nm laser (Zeiss).

[9] = tested on: RFP-expressing Af293 hyphae; experiment: Uptake of Bodipy-conjugated posaconazole by hyphae (confocal microscopy); format: cell-based, A. fumigatus; conditions: 0.5 μM pretreatment 90 min
Description: Red Fluorescent Protein (RFP)-expressing Af293 hyphae were pretreated with 0.5 μM Sph3AC(54-304) hydrolase for 90 min before treatment with Bodipy-conjugated posaconazole (BDP-PCZ). At various time points, samples were fixed and imaged using fluorescent confocal microscopy to determine the kinetics of drug penetration of hyphae.

A. fumigatus hyphae = experiment: SBA-FITC lectin staining of A. fumigatus hyphae after Ega3 treatment; format: cell-based; conditions: 0.5 μM, 3 h
A. fumigatus = experiment: Ega3 inhibition of A. fumigatus biofilm formation (crystal violet, imaged); format: cell-based; conditions: 1 μM, 18 h
Description: A. fumigatus conidia were inoculated into polystyrene, round-bottom 24-well plates at a concentration of 10^5 conidia/well in DMEM media. To assess the inhibition of biofilm formation, Ega346-318 was added at a final concentration of 1 μM and the conidia incubated for 18 h at 37° C., 5% CO2. The resulting biofilms were then gently washed twice with distilled water, and stained with 0.1% crystal violet for 10 min. Samples were washed twice with water and the wells were imaged.

[10] = tested on: preformed A. fumigatus biofilm; experiment: Ega3 disruption of preformed A. fumigatus biofilm; format: cell-based; conditions: 1 μM, 1.5 h, room temperature
Description: To determine the effect hydrolase has on a preformed biofilm, 10^5 A. fumigatus conidia were inoculated per well in DMEM media as above, but in the absence of hydrolase. Following 18 h incubation at 37° C., 5% CO2, the resulting biofilm was treated with Ega346-318 at a final concentration of 1 μM for 1.5 h at room temperature on a nutator. The biofilms were then washed and stained as mentioned above.

B1: BpsB318-670: BpsB C-terminal hydrolase domain residues 318-670, SEQ ID NO: 19 (protein, listed as Bordetella bronchiseptica)
chain: PIERIVQVDLDYIYDPDPEQQNRNLGQLIDRMKDLAPSAVYLQAFADPKGDGDITEVYFPNRHLPMRADLFNRVAWQLKTRAGVMVYAWLPVLTFSVPPGNPAYGKVVQSTTRKPGERGLGSPTRLSPFHPDAHRVISEIYEDLAKAAHFDGLLFHDDAVLDDTEDSSPEALATYQGWGLPPDIAAIRADPKLAQQWSKGKIRYLIDFTMHLRHIVSGYQNDRDMVVARNLYAQPVLDPVSEAWYGQSLPEFLKSYDFVALMAMPNMEGAARPEQWMRQLVAAVARQKGLDRTIFELQARDWRVGKPIDTEILRRQMVQLRSLGAINYGYYPDDFIANHPDAEALRDVMSLKS
For B1, the “inhibition of S. carnosus biofilm formation (in words)” value (S. carnosus) was “can inhibit biofilm formation”, the “dPNAG hydrolysis (in words)” value [1] was “hydrolyze dPNAG” and the EC50 [2] was roughly 60 nM. It also gave an EC50 [3] of roughly 90 nM.

B2: PelA35-291: PelA residues 35-291 from P. protogens Pf-5, SEQ ID NO: 13 (protein, listed as Pseudomonas protogens)
chain: AAPASVGFWYAEQPPLQELAQFEWAVVEPGHMASADVATLRKLGSQPFAYLSVGEFDGNRAALAKQALAQGASPVRNKAWDSQVMDIATPAWREHLFKRAKALQDQGYAGLFLDTLDSFQLLPEADREPQRKALASFLRELHSRLPNLKLFFNRGFEVLGELDGVASAVAVESIHAGWDASAKRYRPVSEADRTWLEGELKPLRARNIPLVAIDYLPANRREEARKLVRQLSQEGFIPVVTTPDLNALSMSTVEVQP
In the case of B2, the “prevention of GAG biofilm formation (in words)” value (A. fumigatus GAG biofilm; 20 h in Brian media, crystal violet, listed as P. protogens PelA35-291) is reported as “shown to prevent GAG-dependent biofilm formation”, the “dispersal of pre-formed GAG biofilm (in words)” value [4] is reported as “elimination of the GAG biofilm” and the “dispersal of pre-formed GAG biofilm (in words)” value ([4]; listed as P. protogens PelA35-291) is reported as “elimination of the GAG biofilms”. The “time to disperse pre-formed Pel biofilm” value ([5]; 1 μM enzyme) was 30 min, the “dispersal of pre-formed Pel biofilm (in words)” value ([5]; 10-fold dilution of 1 μM, 1 h) was “disperse nearly all the biofilm” and the EC50 [6] was 69.3 ± 1.2 nM.

B3: Sph3AC(54-304): Sph3 ortholog residues 54-304, Aspergillus clavatus NRRL 1, SEQ ID NO: 22 (protein, listed as Aspergillus clavatus)
chain: MGPKSKVFVPLYVYPAPGAWDPLEDVISKHPDVNFTVVINPGSGPGPEALPDGNYTREIPKLASYENVRLLGYVATTYAKRNISEVRRDIETYAAWPTQSSNANLAVRGIFFDETPQQYDADILAYLRELTDVVKGTSGLGPDHYVVHNPGAIPDSRYLSTADSTVVFEATYATFQERHGAELFDTIPDSHRDQLCAVIHSVPTSVEGSDLRGLVKQVRQVADEIFITHLETDYYAGFGGQWSEFVDLMAS
With B3 the “epithelial cell damage by A. fumigatus, chromium release” value [7] was “completely protected epithelial cells from damage by A. fumigatus for 24 h”, the “epithelial cell damage by A. fumigatus, chromium release” value ([7]; listed as Sph3 from A. clavatus) was “reduced fungal damage to epithelial cells” and the “inhibition of A. fumigatus biofilm formation by recombinant Sph3 (in words)” value (A. fumigatus GAG biofilm) was “inhibit the formation of A. fumigatus biofilms in a dose dependent manner”. The “GAG exopolysaccharide on B. cinerea hyphae after treatment” value [8] was “complete loss of this exopolysaccharide”, the “surface GalNAc exopolysaccharide of T. asahii after treatment” value (Trichosporon asahii) was “complete loss” and the “dispersal of pre-formed GAG biofilm (in words)” value [4] was “capable of disrupting GAG-dependent biofilms”. For the same molecule, the “uptake of fluorescent-tagged posaconazole by hyphae” value [9] was “increases the activity of antifungals; also recorded: increased the speed and degree of uptake”.

B4: Ega346-318: soluble Ega3 residues 46-318, Aspergillus fumigatus Af293, SEQ ID NO: 21 (protein, listed as Aspergillus fumigatus)
chain: GLGGGGGGEGEEGSGGETTPPEGNYTTAKWQPAVGTKWQIELLYALNDTSVDAEIYDIDLFINDKSTIAGLQRAGRKVICYFSAGSYENWRPDKDKFKDSDLGHDLDDWPGEKWLNISSANVRQIMLDRLDMARDKGCDGVDPDNVDGYDNDNGLDLTQADSISFVNFLANAAHARNMSIGLKNAGDIIPSVIKNMQWSVNEQCAQYNECDTYAVFPQNGKPVFHIEYPKGDKTNNDLSVTASQKNAACDFAGSANFSTVIKNMNLNNWVEYC
For B4, the “detectable GalNAc on hyphal surface after treatment” value (A. fumigatus hyphae) was “complete loss of detectable”, the “A. fumigatus biofilm formation / adherence in presence of enzyme” value (A. fumigatus) was “prevented biofilm formation; also recorded: completely non-adherent” and the “effect on preformed 18 h A. fumigatus biofilm” value [10] was “allowed for disruption of the biofilm”.
